Laboratory results reported in the supplement of paper PMC10724198.
± gives the standard deviation of the averaged measurements.

system: Saccharomyces cerevisiae; assay: protein stability index of tFT-peptide fusion (C-terminal peptide) (PSI (0-1 scale)); higher = more stable (slower turnover); conditions: genetic background: wild type; temperature: 37 C
Description: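 MPS profiling in S. cerevisiae of the tFT-X12 degron library: putative degron peptides plus stable controls, 12 aa, fused to the C-terminus of a sfGFP-mCherry timer. Cells are FACS-sorted into 8 mCherry/sfGFP bins and deep-sequenced. PSI runs from 0 (unstable) to 1 (stable). Backgrounds are wild type, das1Δ and doa10Δ at 30 °C, and wild type, das1Δ, cdc34-1 and cdc53-1 at 37 °C; 2-3 technical replicates each.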
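Also: PSI is a weighted mean of sequencing reads over stability bins, variants kept only with over 10 reads, mCherry proximal and sfGFP distal, peptide attached via GGGS linker.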

Sequence	protein stability index
ISVSVVFFVLRF	0.411 ± 0.011
IYPPVSVTNLLV	0.461 ± 0.0062
KAEKNSKKTSTE	0.702 ± 0.021
KALSSSYFGTRL	0.7128 ± 0.007
KCEKGLYCCIAF	0.626 ± 0.018
KEKGVTKIRISS	0.377 ± 0.024
KEKKKTKHNKIG	0.314 ± 0.02
KIVNNTKKNKCH	0.26 ± 0.058
KLALVYLLIRGL	0.0975 ± 0.0076
KLLGVLFVLFPG	0.527 ± 0.018
KLRIVYAKVVCS	0.407 ± 0.067
KSEKTYTYQVIQ	0.5757 ± 0.005
KVALWRRGVLAA	0.286 ± 0.0099
LCGYVGVVVCLV	0.352 ± 0.015
LCIRHFRLLELL	0.268 ± 0.021
LCSYSTIPLRLY	0.48 ± 0.013
LCWASLLIVYLP	0.463 ± 0.0039
LEYCLATYLSAC	0.4386 ± 0.00068
LFFSFLFLATRC	0.311 ± 0.016
LFFVCSGVVFSF	0.558 ± 0.011
LFGFLCVVMCCG	0.485 ± 0.034
LFLFFFLPPLLF	0.461 ± 0.026
LFLSFLLLYFRP	0.402 ± 0.0086
LFMRGEDEMFSV	0.766 ± 0.036
LFPLFTLIFVHL	0.1696 ± 0.00078
LFTRSIRNLKSL	0.4521 ± 0.0027

Sequence	protein stability index
LFVFVISSSSFP	0.503 ± 0.015
LFWCCVGLSVWR	0.494 ± 0.023
LFWPPCYLFFCL	0.437 ± 0.024
LFWTLSKYLIIC	0.159 ± 0.083
LGFFIFSFLILK	0.221 ± 0.057
LGFHFFFTLIFF	0.37 ± 0.042
LGLLIFQWARVL	0.092 ± 0.0037
LGVVVGGVRGVG	0.4913 ± 0.0033
LHRLRFTLVQVS	0.2 ± 0.0028
LIAPSACNLFLF	0.5569 ± 0.005
LIRDLLYMAVLV	0.329 ± 0.0044
LISRLVLVFVIP	0.4696 ± 0.0045
LIVCVKAITIVS	0.0521 ± 0.031
LKCFLVLTFWFS	0.3 ± 0.0095
LLHFVLYFLSCT	0.549 ± 0.012
LLHQSVHSHIPP	0.6911 ± 0.0067
LLILSLLVLSSR	0.37 ± 0.011
LLLCVVLVSVFG	0.134 ± 0.027
LLLFSFAALANF	0.466 ± 0.02
LLLFTPFYLLLR	0.219 ± 0.016
LLLPVFRFFFVN	0.143 ± 0.0049
LLRFFPCFLGVN	0.579 ± 0.021
LLTAARAQLFAV	0.6168 ± 0.0014
LLVSVVFVSRFF	0.444 ± 0.006
LLWALGLVLVEG	0.281 ± 0.015
LNLACCWFVRCR	0.399 ± 0.015

Sequence	protein stability index
LNSSVLRLRFFV	0.152 ± 0.041
LPLCGLLLFLFF	0.492 ± 0.022
LPLQPPPPVCLP	0.69 ± 0.011
LPPFGLFLFVFI	0.498 ± 0.01
LPPSTFLLHFLL	0.415 ± 0.0062
LPTGLKTFLIAF	0.519 ± 0.0071
LPVPARPFPPSS	0.6907 ± 0.0012
LQSYVSRLVRLS	0.359 ± 0.055
LRFFLPFLLSLP	0.292 ± 0.0041
LRFSLLRVGWLC	0.561 ± 0.011
LRGIVSVWILRA	0.282 ± 0.0057
LRLLSLIPPLSC	0.52 ± 0.011
LRSPCALVLLLI	0.441 ± 0.0051
LSAVISLRIQLS	0.4919 ± 0.0018
LSFFICSFFFVL	0.5113 ± 0.0012
LSFLSLIFSICY	0.474 ± 0.012
LSGDIPWSFVPV	0.75756 ± 0.0002
LSIGCRCLWGWF	0.708 ± 0.026
LSLCPVHRLLVL	0.5327 ± 0.0015
LSLSPRLPRLVA	0.377 ± 0.026
LSRFGSTCPSGL	0.7477 ± 0.0031
LSRHLILFIVIR	0.2008 ± 0.00073
LSVYFSLSLCVS	0.429 ± 0.017
LTCTSTPMACRV	0.5859 ± 0.0028
LVCLPVGFFLMW	0.576 ± 0.0068
LVCLVFVRSSLV	0.457 ± 0.017

system: Saccharomyces cerevisiae; assay: as above; conditions: genetic background: wild type; temperature: 30 C

Sequence	protein stability index
ISVSVVFFVLRF	0.3965 ± 0.0021
IYPPVSVTNLLV	0.357 ± 0.1
KAEKNSKKTSTE	0.698 ± 0.044
KALSSSYFGTRL	0.735 ± 0.062
KCEKGLYCCIAF	0.504 ± 0.073
KEKGVTKIRISS	0.295 ± 0.0055
KEKKKTKHNKIG	0.216 ± 0.038
KIVNNTKKNKCH	0.226 ± 0.025
KLALVYLLIRGL	0.125 ± 0.06
KLLGVLFVLFPG	0.443 ± 0.017
KLRIVYAKVVCS	0.348 ± 0.055
KSEKTYTYQVIQ	0.453 ± 0.0059
KVALWRRGVLAA	0.231 ± 0.007
LCGYVGVVVCLV	0.307 ± 0.019
LCIRHFRLLELL	0.276 ± 0.0069
LCSYSTIPLRLY	0.329 ± 0.035
LCWASLLIVYLP	0.392 ± 0.011
LEYCLATYLSAC	0.378 ± 0.0073
LFFSFLFLATRC	0.236 ± 0.037
LFFVCSGVVFSF	0.507 ± 0.04
LFGFLCVVMCCG	0.434 ± 0.028
LFLFFFLPPLLF	0.446 ± 0.028
LFLSFLLLYFRP	0.351 ± 0.039
LFMRGEDEMFSV	0.746 ± 0.018
LFPLFTLIFVHL	0.1989 ± 0.00028
LFTRSIRNLKSL	0.452 ± 0.033

Sequence	protein stability index
LFVFVISSSSFP	0.395 ± 0.04
LFWCCVGLSVWR	0.43 ± 0.011
LFWPPCYLFFCL	0.389 ± 0.031
LFWTLSKYLIIC	0.135 ± 0.079
LGFFIFSFLILK	0.25 ± 0.015
LGFHFFFTLIFF	0.381 ± 0.03
LGLLIFQWARVL	0.12 ± 0.035
LGVVVGGVRGVG	0.448 ± 0.045
LHRLRFTLVQVS	0.223 ± 0.022
LIAPSACNLFLF	0.412 ± 0.032
LIRDLLYMAVLV	0.38 ± 0.019
LISRLVLVFVIP	0.38 ± 0.011
LIVCVKAITIVS	0.0363 ± 0.015
LKCFLVLTFWFS	0.263 ± 0.0049
LLHFVLYFLSCT	0.456 ± 0.018
LLHQSVHSHIPP	0.534 ± 0.052
LLILSLLVLSSR	0.326 ± 0.0076
LLLCVVLVSVFG	0.18 ± 0.0041
LLLFSFAALANF	0.347 ± 0.0064
LLLFTPFYLLLR	0.305 ± 0.011
LLLPVFRFFFVN	0.203 ± 0.04
LLRFFPCFLGVN	0.484 ± 0.022
LLTAARAQLFAV	0.503 ± 0.046
LLVSVVFVSRFF	0.387 ± 0.053
LLWALGLVLVEG	0.377 ± 0.029
LNLACCWFVRCR	0.349 ± 0.03

Sequence	protein stability index
LNSSVLRLRFFV	0.2643 ± 0.0019
LPLCGLLLFLFF	0.435 ± 0.0059
LPLQPPPPVCLP	0.376 ± 0.022
LPPFGLFLFVFI	0.366 ± 0.018
LPPSTFLLHFLL	0.317 ± 0.0077
LPTGLKTFLIAF	0.461 ± 0.02
LPVPARPFPPSS	0.714 ± 0.0095
LQSYVSRLVRLS	0.295 ± 0.015
LRFFLPFLLSLP	0.2418 ± 0.0021
LRFSLLRVGWLC	0.434 ± 0.0087
LRGIVSVWILRA	0.249 ± 0.025
LRLLSLIPPLSC	0.467 ± 0.0065
LRSPCALVLLLI	0.336 ± 0.0096
LSAVISLRIQLS	0.449 ± 0.021
LSFFICSFFFVL	0.408 ± 0.013
LSFLSLIFSICY	0.461 ± 0.022
LSGDIPWSFVPV	0.738 ± 0.033
LSIGCRCLWGWF	0.465 ± 0.051
LSLCPVHRLLVL	0.498 ± 0.03
LSLSPRLPRLVA	0.283 ± 0.038
LSRFGSTCPSGL	0.724 ± 0.0079
LSRHLILFIVIR	0.272 ± 0.036
LSVYFSLSLCVS	0.448 ± 0.02
LTCTSTPMACRV	0.452 ± 0.0075
LVCLPVGFFLMW	0.4899 ± 0.0037
LVCLVFVRSSLV	0.339 ± 0.022
